Measured values published in patent US20140161799A1 (ARCH ONCOLOGY, published 2014).

T1: mouse CD47 (mouse, UniProt Q61735 19-303)
T1 construct: whole, on cells; also called CD47 on mouse red blood cells
T1 sequence (looked up): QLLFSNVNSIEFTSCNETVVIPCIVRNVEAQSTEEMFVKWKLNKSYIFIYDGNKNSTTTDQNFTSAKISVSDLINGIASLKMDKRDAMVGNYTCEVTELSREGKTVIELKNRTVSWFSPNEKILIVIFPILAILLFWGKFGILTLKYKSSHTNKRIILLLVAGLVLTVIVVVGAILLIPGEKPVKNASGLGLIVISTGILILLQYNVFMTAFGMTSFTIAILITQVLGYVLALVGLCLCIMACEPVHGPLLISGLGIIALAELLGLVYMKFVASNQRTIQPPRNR

T2: rat CD47 (rat, UniProt P97829 19-303)
T2 construct: whole, on cells; also called CD47 on rat red blood cells
T2 sequence (looked up): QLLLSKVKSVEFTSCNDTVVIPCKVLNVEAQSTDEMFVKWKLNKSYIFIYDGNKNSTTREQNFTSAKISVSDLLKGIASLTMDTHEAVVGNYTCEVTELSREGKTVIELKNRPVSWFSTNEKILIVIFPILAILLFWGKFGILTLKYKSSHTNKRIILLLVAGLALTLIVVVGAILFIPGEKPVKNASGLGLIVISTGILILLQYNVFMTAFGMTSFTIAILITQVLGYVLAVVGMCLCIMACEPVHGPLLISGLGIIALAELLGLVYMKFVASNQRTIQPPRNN

T3: pig CD47 (pig, UniProt Q9GKE8 19-303)
T3 construct: whole, on cells; also called CD47 on pig red blood cells
T3 sequence (looked up): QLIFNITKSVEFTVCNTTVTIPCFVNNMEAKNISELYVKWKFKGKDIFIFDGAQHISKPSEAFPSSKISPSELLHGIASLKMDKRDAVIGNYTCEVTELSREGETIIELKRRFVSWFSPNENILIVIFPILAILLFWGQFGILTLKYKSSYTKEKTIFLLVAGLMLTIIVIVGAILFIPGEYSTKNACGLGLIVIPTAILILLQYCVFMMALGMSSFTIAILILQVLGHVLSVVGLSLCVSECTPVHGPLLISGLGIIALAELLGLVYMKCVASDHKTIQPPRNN


How the values were obtained:
Assay in all cases: flow cytometry on RBCs, antibody 10 ng/ml
[1] = target: T1, mouse CD47
Procedure: (§1) Cross species reactivity of humanized antibodies of the present invention is determined using freshly isolated red blood cells (RBCs), which display CD47 on their surface, from human, mouse, rat, and pig according to the methods disclosed in Kamel et al. (2010) Blood. Transfus. 8(4):260-266.
(§2) RBCs are incubated for 60 minutes on ice with tissue culture supernatants containing the secreted humanized antibodies at a concentration of 10 ng/ml in a solution of phosphate buffered saline, pH 7.2, 2.5 mM EDTA (PBS+E). Cells are then washed with cold PBS+E, and incubated for an additional hour on ice with FITC labeled donkey anti-human antibody (Jackson Immuno Research Labs, West Grove, Pa.; Catalogue #709-096-149) in PBS+E. Cells are then washed with PBS+E, and antibody binding is analyzed using a BD FACSAria Cell Sorter (Becton Dickinson) or a C6 Accuri Flow Cytometer (Becton Dickinson). Antibody binding is quantitated by comparison of mean fluorescence values relative to that of chimeric antibody >VxP037-01LC (SEQ ID NO:7))/>VxP037-01HC (SEQ ID NO:57). The mean fluorescence value for each antibody is divided by the mean fluorescence value for the chimeric antibody.

[2] = target: T2, rat CD47
Procedure: as §1, §2

[3] = target: T4, human CD47 (human, UniProt Q08722 19-323)
T4 construct: whole, on cells; also called CD47 on human red blood cells
T4 sequence (Q08722 19-323): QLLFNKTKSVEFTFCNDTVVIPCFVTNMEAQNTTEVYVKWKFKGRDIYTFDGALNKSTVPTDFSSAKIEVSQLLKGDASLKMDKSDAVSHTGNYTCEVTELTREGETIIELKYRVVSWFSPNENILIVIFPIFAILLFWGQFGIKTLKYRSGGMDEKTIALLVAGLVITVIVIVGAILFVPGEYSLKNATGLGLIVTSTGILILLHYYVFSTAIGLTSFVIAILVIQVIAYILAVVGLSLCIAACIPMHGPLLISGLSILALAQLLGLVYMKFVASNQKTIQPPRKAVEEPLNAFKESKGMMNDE
Procedure: as §1, §2

[4] = target: T3, pig CD47
Procedure: as §1, §2

| Binder | mean fluorescence relative to chimeric antibody [1] | mean fluorescence relative to chimeric antibody [2] | mean fluorescence relative to chimeric antibody [3] | mean fluorescence relative to chimeric antibody [4] |
| --- | --- | --- | --- | --- |
| pVxK7b-037-hum23-LC/pVxK7b-037-hum23-HC (antibody, human IgG1, V domains shown, Full-length human IgG1/kappa in CHO supernatant; Variable entries end within framework 4 (...FGQG / ...WGQG); also called Clone 23) VH: QVQLQESGPGLVKPSQTLSLTCTVSGYTFTNYYVFWVRQARGQRLEWIGDINPVNGDTNFNEKFKNRLTISKDTSKNQVVLTMTNMDPVDTATYYCARGGYTMDYWGQG VL: DIVMTQTPLSLPVTPGEPASISCRSSQSLVHSNGNTYLHWYQQKPGKAPKLLIYKVSYRFSGVPDRFSGSGSGTDFTLKISRVEAEDVGVYYCSQNTHVPRTFGQG | 1.4 fold of chimera | 3.3 fold of chimera | 1.2 fold of chimera | 1.7 fold of chimera |
| pVxK7b-037-hum22-LC/pVxK7b-037-hum22-HC (antibody, human IgG1, V domains shown, Full-length human IgG1/kappa in CHO supernatant; Variable entries end within framework 4 (...FGQG / ...WGQG); also called Clone 22) VH: QVQLQESGPGLVKPSQTLSLTCTVSGYTFTNYYVFWVRQARGQRLEWIGDINPVNGDTNFNEKFKNRLTISKDTSKNQVVLTMTNMDPVDTATYYCARGGYTMDYWGQG VL: EIVLTQSPATLSVSPGERATLSCRSSQSLVHSNGNTYLHWYQQKPGQAPRLLIYKVSYRFSGVPSRFSGSGSGTDFTFTISSLEAEDAATYYCSQNTHVPRTFGQG | 1.2 fold of chimera | 2.8 fold of chimera | 1.1 fold of chimera | 1.4 fold of chimera |
| pVxK7b-037-hum01-LC/pVxK7b-037-hum01-HC (antibody, human IgG1, V domains shown, Full-length human IgG1/kappa in CHO supernatant; Variable entries end within framework 4 (...FGQG / ...WGQG); also called Clone 1) VH: QVQLQESGPGLVKPSQTLSLTCTVSGYTFTNYYVFWVRQARGQRLEWIGDINPVNGDTNFNEKFKNRVTISADKSISTAYLQWSSLKASDTAMYYCARGGYTMDYWGQG VL: DIVMTQTPLSLPVTPGEPASISCRSSQSLVHSNGNTYLHWYQQKPGKAPKLLIYKVSYRFSGVPDRFSGSGSGTDFTLKISRVEAEDVGVYYCSQNTHVPRTFGQG | 1.7 fold of chimera | 2.7 fold of chimera | 1.1 fold of chimera | 1.3 fold of chimera |
| pVxK7b-037-hum20-LC/pVxK7b-037-hum20-HC (antibody, human IgG1, V domains shown, Full-length human IgG1/kappa in CHO supernatant; Variable entries end within framework 4 (...FGQG / ...WGQG); also called Clone 20) VH: QITLKESGPTLVKPTQTLTLTCTFSGYTFTNYYVFWVRQAPGQGLEWMGDINPVNGDTNFNEKFKNRVTITADKSTSTAYMELSSLRSEDTAVYYCARGGYTMDYWGQG VL: DIVMTQTPLSLPVTPGEPASISCRSSQSLVHSNGNTYLHWYLQKPGQSPQLLIYKVSYRFSGVPDRFSGSGSGTDFTLKISRVEAEDVGVYYCSQNTHVPRTFGQG | 1.5 fold of chimera | 1.9 fold of chimera | 1.3 fold of chimera | 1.7 fold of chimera |
| pVxK7b-037-hum10-LC/pVxK7b-037-hum10-HC (antibody, human IgG1, V domains shown, Full-length human IgG1/kappa in CHO supernatant; Variable entries end within framework 4 (...FGQG / ...WGQG); also called Clone 10) VH: QVQLQESGPGLVKPSQTLSLTCTVSGYTFTNYYVFWVRQARGQRLEWIGDINPVNGDTNFNEKFKNRLTISKDTSKNQVVLTMTNMDPVDTATYYCARGGYTMDYWGQG VL: DIVMTQTPLSLPVTPGEPASISCRSSQSLVHSNGNTYLHWYLQKPGQSPQLLIYKVSYRFSGVPDRFSGSGSGTDFTLKISRVEAEDVGVYYCSQNTHVPRTFGQG | 1.2 fold of chimera | 2.9 fold of chimera | 1.1 fold of chimera | 1.5 fold of chimera |
| pVxK7b-037-hum14-LC/pVxK7b-037-hum14-HC (antibody, human IgG1, V domains shown, Full-length human IgG1/kappa in CHO supernatant; Variable entries end within framework 4 (...FGQG / ...WGQG); also called Clone 14) VH: QVQLQESGPGLVKPSQTLSLTCTVSGYTFTNYYVFWVRQARGQRLEWIGDINPVNGDTNFNEKFKNRVTISADKSISTAYLQWSSLKASDTAMYYCARGGYTMDYWGQG VL: DVVMTQSPLSLPVTLGQPASISCRSSQSLVHSNGNTYLHWYQQKPGKAPKLLIYKVSYRFSGVPDRFSGSGSGTDFTLKISRVEAEDVGVYYCSQNTHVPRTFGQG | 1.5 fold of chimera | 3.2 fold of chimera | 1.1 fold of chimera | 1.4 fold of chimera |
| pVxK7b-037-hum09-LC/pVxK7b-037-hum09-HC (antibody, human IgG1, V domains shown, Full-length human IgG1/kappa in CHO supernatant; Variable entries end within framework 4 (...FGQG / ...WGQG); also called Clone 9) VH: QVQLQESGPGLVKPSQTLSLTCTVSGYTFTNYYVFWVRQARGQRLEWIGDINPVNGDTNFNEKFKNRLTISKDTSKNQVVLTMTNMDPVDTATYYCARGGYTMDYWGQG VL: DVVMTQSPLSLPVTLGQPASISCRSSQSLVHSNGNTYLHWYQQKPGKAPKLLIYKVSYRFSGVPDRFSGSGSGTDFTLKISRVEAEDVGVYYCSQNTHVPRTFGQG | 1.4 fold of chimera | 3.7 fold of chimera | 1.2 fold of chimera | 1.6 fold of chimera |
| pVxK7b-037-hum16-LC/pVxK7b-037-hum16-HC (antibody, human IgG1, V domains shown, Full-length human IgG1/kappa in CHO supernatant; Variable entries end within framework 4 (...FGQG / ...WGQG); also called Clone 16) VH: QVQLQESGPGLVKPSQTLSLTCTVSGYTFTNYYVFWVRQARGQRLEWIGDINPVNGDTNFNEKFKNRVTISADKSISTAYLQWSSLKASDTAMYYCARGGYTMDYWGQG VL: AIQLTQSPSSLSASVGDRVTITCRSSQSLVHSNGNTYLHWYQQKPGQAPRLLIYKVSYRFSGVPDRFSGSGSGTDFTLKISRVEAEDVGVYYCSQNTHVPRTFGQG | 1 fold of chimera | 2.1 fold of chimera | 0.9 fold of chimera | 1.1 fold of chimera |
| pVxK7b-037-hum17-LC/pVxK7b-037-hum17-HC (antibody, human IgG1, V domains shown, Full-length human IgG1/kappa in CHO supernatant; Variable entries end within framework 4 (...FGQG / ...WGQG); also called Clone 17) VH: EVQLVQSGAEVKKPGATVKISCKVSGYTFTNYYVFWIRQPPGKGLEWIGDINPVNGDTNFNEKFKNRVTITADKSTSTAYMELSSLRSEDTAVYYCARGGYTMDYWGQG VL: AIQLTQSPSSLSASVGDRVTITCRSSQSLVHSNGNTYLHWYQQKPGQAPRLLIYKVSYRFSGVPDRFSGSGSGTDFTLKISRVEAEDVGVYYCSQNTHVPRTFGQG | 0.9 fold of chimera | 2.1 fold of chimera | 0.8 fold of chimera | 1.3 fold of chimera |
| pVxK7b-037-hum11-LC/pVxK7b-037-hum11-HC (antibody, human IgG1, V domains shown, Full-length human IgG1/kappa in CHO supernatant; Variable entries end within framework 4 (...FGQG / ...WGQG); also called Clone 11) VH: QVQLQESGPGLVKPGATVKISCKVSGYTFTNYYVFWVRQARGQRLEWIGDINPVNGDTNFNEKFKNRVTITADKSTSTAYMELSSLRSEDTAVYYCARGGYTMDYWGQG VL: EIVLTQSPATLSVSPGERATLSCRSSQSLVHSNGNTYLHWYQQKPGQAPRLLIYKVSYRFSGVPSRFSGSGSGTDFTFTISSLEAEDAATYYCSQNTHVPRTFGQG | 0.7 fold of chimera | 1.2 fold of chimera | 0.8 fold of chimera | 1.2 fold of chimera |
| pVxK7b-037-hum18-LC/pVxK7b-037-hum18-HC (antibody, human IgG1, V domains shown, Full-length human IgG1/kappa in CHO supernatant; Variable entries end within framework 4 (...FGQG / ...WGQG); also called Clone 18) VH: EVQLVQSGAEVKKPGESLRISCKGSGYTFTNYYVFWIRQSPSRGLEWLGDINPVNGDTNFNEKFKNRVTITADKSTSTAYMELSSLRSEDTAVYYCARGGYTMDYWGQG VL: EIVLTQSPATLSVSPGERATLSCRSSQSLVHSNGNTYLHWYQQKPGQAPRLLIYKVSYRFSGVPSRFSGSGSGTDFTFTISSLEAEDAATYYCSQNTHVPRTFGQG | 1.3 fold of chimera | 2.2 fold of chimera | 1 fold of chimera | 1.2 fold of chimera |
